Experimental data from IntAct's records for PubMed 22020124.

B1: Centrosomal P4.1-associated protein (Homo sapiens), Q9HC77 (parent)
chain: MFLMPTSSELNSGQNFLTQWMTNPSRAGVILNRGFPILEADKEKRAAVDISTSFPIKGTHFSDSFSFINEEDSLLEEQKLESNNPYKPQSDKSETHTAFPCIKKGPQVAACHSAPGHQEENKNDFIPDLASEFKEGAYKDPLFKKLEQLKEVQQKKQEQLKRQQLEQLQRLMEEQEKLLTMVSGQCTLPGLSLLPDDQSQKHRSPGNTTTGERATCCFPSYVYPDPTQEETYPSNILSHEQSNFCRTAHGDFVLTSKRASPNLFSEAQYQEAPVEKNNLKEENRNHPTGESILCWEKVTEQIQEANDKNLQKHDDSSEVANIEERPIKAAIGERKQTFEDYLEEQIQLEEQELKQKQLKEAEGPLPIKAKPKQPFLKRGEGLARFTNAKSKFQKGKESKLVTNQSTSEDQPLFKMDRQQLQRKTALKNKELCADNPILKKDSKARTKSGSVTLSQKPKMLKCSNRKSLSPSGLKIQTGKKCDGQFRDQIKFENKVTSNNKENVTECPKPCDTGCTGWNKTQGKDRLPLSTGPASRLAAKSPIRETMKESESSLDVSLQKKLETWEREKEKENLELDEFLFLEQAADEISFSSNSSFVLKILERDQQICKGHRMSSTPVKAVPQKTNPADPISHCNRSEDLDHTAREKESECEVAPKQLHSLSSADELREQPCKIRKAVQKSTSENQTEWNARDDEGVPNSDSSTDSEEQLDVTIKPSTEDRERGISSREDSPQVCDDKGPFKDTRTQEDKRRDVDLDLSDKDYSSDESIMESIKHKVSEPSRSSSLSLSKMDFDDERTWTDLEENLCNHDVVLGNESTYGTPQTCYPNNEIGILDKTIKRKIAPVKRGEDLSKSRRSRSPPTSELMMKFFPSLKPKPKSDSHLGNELKLNISQDQPPGDNARSQVLREKIIELETEIEKFKAENASLAKLRIERESALEKLRKEIADFEQQKAKELARIEEFKKEEMRKLQKERKVFEKYTTAARTFPDKKEREEIQTLKQQIADLREDLKRKETKWSSTHSRLRSQIQMLVRENTDLREEIKVMERFRLDAWKRAEAIESSLEVEKKDKLANTSVRFQNSQISSGTQVEKYKKNYLPMQGNPPRRSKSAPPRDLGNLDKGQAASPREPLEPLNFPDPEYKEEEEDQDIQGEISHPDGKVEKVYKNGCRVILFPNGTRKEVSADGKTITVTFFNGDVKQVMPDQRVIYYYAAAQTTHTTYPEGLEVLHFSSGQIEKHYPDGRKEITFPDQTVKNLFPDGQEESIFPDGTIVRVQRDGNKLIEFNNGQRELHTAQFKRREYPDGTVKTVYANGHQETKYRSGRIRVKDKEGNVLMDTEL
partner: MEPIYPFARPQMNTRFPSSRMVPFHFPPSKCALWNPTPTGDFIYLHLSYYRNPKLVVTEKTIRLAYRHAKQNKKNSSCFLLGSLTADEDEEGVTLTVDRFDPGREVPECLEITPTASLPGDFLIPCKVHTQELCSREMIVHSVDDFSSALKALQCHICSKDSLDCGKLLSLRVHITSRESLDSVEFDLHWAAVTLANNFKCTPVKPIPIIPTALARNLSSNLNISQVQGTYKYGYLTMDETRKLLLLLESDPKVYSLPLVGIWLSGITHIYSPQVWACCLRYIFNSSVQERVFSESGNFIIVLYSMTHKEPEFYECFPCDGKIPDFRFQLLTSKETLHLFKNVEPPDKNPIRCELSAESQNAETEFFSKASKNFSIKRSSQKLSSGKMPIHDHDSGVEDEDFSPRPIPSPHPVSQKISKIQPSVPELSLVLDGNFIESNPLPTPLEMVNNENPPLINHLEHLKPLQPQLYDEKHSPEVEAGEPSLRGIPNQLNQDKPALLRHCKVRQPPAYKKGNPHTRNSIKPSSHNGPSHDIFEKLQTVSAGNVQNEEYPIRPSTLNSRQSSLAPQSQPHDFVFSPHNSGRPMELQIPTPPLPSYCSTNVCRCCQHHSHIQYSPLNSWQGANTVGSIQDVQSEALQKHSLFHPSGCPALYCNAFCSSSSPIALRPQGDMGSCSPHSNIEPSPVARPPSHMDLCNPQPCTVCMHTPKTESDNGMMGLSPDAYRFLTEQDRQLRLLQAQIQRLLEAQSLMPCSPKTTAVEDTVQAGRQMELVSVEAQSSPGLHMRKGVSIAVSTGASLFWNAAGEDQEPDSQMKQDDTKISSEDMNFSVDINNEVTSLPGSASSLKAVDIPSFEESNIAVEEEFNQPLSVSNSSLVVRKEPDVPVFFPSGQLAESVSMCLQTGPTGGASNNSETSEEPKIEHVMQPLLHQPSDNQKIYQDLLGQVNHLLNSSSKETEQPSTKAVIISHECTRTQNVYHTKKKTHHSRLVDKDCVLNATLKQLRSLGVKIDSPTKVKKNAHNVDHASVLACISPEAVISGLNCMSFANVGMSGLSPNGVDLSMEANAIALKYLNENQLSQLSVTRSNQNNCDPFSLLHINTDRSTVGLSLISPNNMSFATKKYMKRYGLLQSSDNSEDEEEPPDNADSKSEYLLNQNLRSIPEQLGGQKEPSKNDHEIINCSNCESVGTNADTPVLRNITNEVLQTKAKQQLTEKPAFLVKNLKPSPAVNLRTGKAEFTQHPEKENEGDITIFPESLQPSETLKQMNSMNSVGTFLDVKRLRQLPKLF

Variants of: B1
Conditions: with stil_human STIL
In the case of E1235V, the “effect of a mutation on the interaction” value is reported as “decreasing interaction”.

Variants of: B1
Conditions: with stil_human STIL
Remark: another data set of the same source
For E1235V, the “effect of a mutation on the interaction” value was “disrupting interaction”.
